In PMC9182532, “The RHIM of the Immune Adaptor Protein TRIF Forms Hybrid Amyloids with Other Necroptosis-Associated Proteins” (Molecules, 2022):

B2: YPet-TRIF_(601–712) (domain or fragment, human, UniProt Q8IUC6 601-712, looked up)
chain: APYGARMPFGGQVPLGAPPPFPTWPGCPQPPPLHAWQAGTPPPPSPQPAAFPQSLPFPQSPAFPTASPAPPQSPGLQPLIIHHAQMVQLGLNNHMWNQRGSQAPEDKTQEAE
notes: source: E. coli BL21(DE3), solubilised in 8 M urea, purified (Ni-NTA); not shown: YPet, N-terminal, kept

Legend:
[1] = biological target: the molecule itself; assay: thioflavin T fluorescence + Congo red absorbance; self-assembly started by dilution from urea into 25 mM NaH2PO4, 150 mM NaCl, pH 7.4, 40 µM ThT, 0.5 mM DTT, 37 °C, 2.5 µM (0.625–5 µM in the concentration series); Congo red on samples dialysed overnight at 0.3 mg/mL
[2] = biological target: the molecule itself; assay: SDS-agarose gel electrophoresis (SDS-AGE); 5 µM alone or equimolar mixtures, kept in 8 M urea (monomer control) or dialysed overnight against 100 mM NaH2PO4, 20 mM Tris, 0.5 mM DTT, pH 8.0, with or without 2% SDS for 10 min; 1% agarose gel with 0.1% SDS; YPet and mCherry fluorescence imaged and overlaid
[3] = biological target: B2; assay: as above; details: both partners purified

B1: Ub-TRIF_(601–712) (domain or fragment, human, UniProt Q8IUC6 601-712, looked up)
chain: APYGARMPFGGQVPLGAPPPFPTWPGCPQPPPLHAWQAGTPPPPSPQPAAFPQSLPFPQSPAFPTASPAPPQSPGLQPLIIHHAQMVQLGLNNHMWNQRGSQAPEDKTQEAE
notes: Kept as monomer in 8 M urea; assembly is started by removing the denaturant; also called wildtype TRIF RHIM; source: E. coli BL21(DE3), solubilised in 8 M urea, purified (Ni-NTA); not shown: ubiquitin, N-terminal, kept
B1: binds [1].

B2: binds [2].

B3: mCherry-RIPK1_(497–583) (domain or fragment, human, UniProt Q13546 497-583, looked up)
chain: MPSLHNIPVPETNYLGNTPTMPFSSLPPTDESIKYTIYNSTGIQIGAYNYMEIGGTSSSLLDSTNTNFKEEPAAKYQAIFDNTTSLT
notes: also called RIPK1 RHIM construct; source: E. coli BL21(DE3), solubilised in 8 M urea, purified (Ni-NTA); not shown: mCherry, N-terminal, kept
B3: binds [3]; binds [2].
